Variants at the floor of the assay were thinned out.
B1: TPR 5TU (parent)
chain: GGAUCUUCUCGAUCUAACAAAAAAGACAAAUCUGCCACAAAGCUUGAGAGCAUCUUCGGAUGCAGAGGCGGCAGCCUUCGGUGGCGCGAUAGCGCCAACGUUCUCAACUAUGACACGCAAAACGCGUGCUCCGUUGAAUGGAGUUUAUCAUG

Variants of: B1
Test: polymerase ribozyme fitness, log enrichment relative to wild type (log ratio); higher = more active; in vitro selection for triplet polymerase activity
How it was run: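 Streptavidin-bead capture of gel-excised extended constructs, followed by RT-PCR, closed a single triplicate in vitro selection round. That round began by annealing PCR-built, transcribed mutant libraries of each subunit of a heterodimeric triplet polymerase ribozyme with a biotinylated primer, the partner subunit and triplets, then incubating them frozen at −7 °C. After Illumina sequencing of inputs and outputs, genotypes needed ≥10 input reads and ≥1 read per output. Fitness is the base-2 logarithm of genotype enrichment over wild-type enrichment, using inverse-variance-weighted replicate averages.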

| Variant | polymerase ribozyme fitness (log ratio) |
| --- | --- |
| GGAUCUUCUCGAUCUUACAAAAAAGAUACAUCUGCCACAAAGCUUGAGGGCAUCUUCGGAUGCAGAGGCGGCAGCCUUCGGUGGCGCGAUAGCGUCAACGUUCUGAACUAUGACACGCAAAACGCGUGCUCCGUUGAAUGGAGUUAAUCAUG [A16U C27U A29C A49G C95U C105G U146A] | ≤ -4.2 |
| GGAUCUUCUCGAUCUUACAAAAAAGACAAAUCUGCCACAAAGCUUGAGAGCAUCUUCGGAUGCAGAGGCGGCAGCCUUCGGUGGCGCGAUAGCGCCAACGUUGUCAACUAUGACACGCAAAACGCGUGCUCCGUUGAAUGGAGUUUAUCAUG [A16U C103G] | -3.31 |
| GGAUCUUCUCGAUCUUACAAAAAAGACAAAUCUGCCACAAAGCUUGAGAGCAUCUUCGGAUGCAGAGGCGGCAGCCUUGGGUGGCGCGAUAGCGCCAACGUUCUCAACUAUGACACGCAAAACGCGUGCUCCGUUGAAUGGAGUUUAUCAUG [A16U C79G] | ≤ -4.2 |
| GGAUCUUCUCGAUCUUAUAAAAAAGACAAAUCUGCCACAAAGCGUGAGAGCAUCUUCGGAUGCAGAGGCGGCAGCCUUCGGAGGCGCGAUAGUGCCAAAGUUCUCGACUAUGACACGCAAAACGCGUGCUCCGUUGAAUGGCGUUUAUCAUG [A16U C18U U44G U82A C93U C99A A106G A142C] | ≤ -4.2 |
| GGAUCUUCUCGAUCUUACAAAAAAGAUAAAUCUGCCACAAAGCUUGAGAGCAUCUUAGGAUGCAGAGGCGGCAGCCUUCGGUGGCGCGAUAGAGCCAACGUUCUCACCUAUGACACGCAAAACGAGUGCUCCGUUGAAUGGAGUUGAUCAUG [A16U C27U C57A C93A A107C C125A U146G] | ≤ -4.2 |
| GGAUCUUCUCGAUCUUACAAAAAAGAGUAACCUGCCACAAAGCUUGAGAGCAUCUUCGGAUGCAGAGGCGGCAUCCUUCGGAGGCGCGAUAGCGCCAACGUUCUCAACUAUGACACGCAAAACGCGUGCUCCGUUGAAUGGAGUUUAUCAUG [A16U C27G A28U U31C G74U U82A] | ≤ -4.2 |
| GGAUCUUCUCGAUCUUACAAAAAAGACAAAUCUGCCACAAAGCUUGAGAACAUCUUCGGAUGCAGAGGCGGCAGCCUUCGGUGGCGCGAUAGCGGCAACGUUCUCAACUAUGACACGGAAAACGCGUGCUCCGUUGAAUGGAGUUUAUCAUG [A16U G50A C95G C118G] | ≤ -4.2 |
| GGAUCUUCUCGAUCUUACAAAAAAGACAAAUCUGCCACAAAGCUUGAGAACAUCUUCGGAUGCAGAGGCGGCAGCUUUCGGUGGCGCGAUAGCGCCAACGUUCUCAACUAUGACACGCAAAACGCGUGCUCCGUUGAAUGGAGUUUAUCAUG [A16U G50A C76U] | -3.4 |
| GGAUCUUCUCGAUCUUACAAAAAAGACAAAUCUUCCACAAAGCUUGAGAGCAUCUUCGGAUGCAGAGGCGACAGCCUUCGGUGGCGCGAUAGCACCAACGUGCUCAACUAUGACACGCAAAACGCGUGCUCCGUUGAAUGGAGUUUAUCAAG [A16U G34U G71A G94A U102G U151A] | ≤ -4.2 |
| GGAUCUUCUCGAUCUUACAAAAAAGACAAAUCUGCCACAAAGCUUGAGAGCAUCUUCGGAUGCAGAGGCGGCAGCCUUCGGUGGCGCGAUAGCGCUAACGUUCUCAACUAUGACACGCAAAACGCGUGCUCCGUUGAAUGGAGUUUAUCAUG [A16U C96U] | -2.07 |
| GGAUCUUCUCGAUCUUACAAAAAAGAAUAAUCUGCCACAAAGCUUGAGAGCAUUUUCGGAUGCAGAGGCGGCAGUCUUCGGUGGCGCGAUACCGCCAACGUUCUCAACUAUGACACGCAAAACGCGUGCUCCGUUUAAUGGAGUUUAUCAUG [A16U C27A A28U C54U C75U G92C G136U] | ≤ -4.2 |
| GGAUCUUCUCGAUCUUACAAAAAAGACAAAUCUGCCACAAAGCUUGAGAGCAUCUUAGGAUGCAGAGGCGGCAGCCUUCGGUGGCGCGAUAGCGCCAAGGUUCCCAACUAUGACACGCAAAACGCGUGCUCCGUUGAAUGGAGUUUAUCAUG [A16U C57A C99G U104C] | -3.73 |
| GGAUCUUCUCGAUCUUACAAAAAAGACAAAUCUGCCAAAAAGCUUGAGAGCAUCUUCGGAUGCAGAGGCGGCAGACUUCGGUGGCGCGAUAGCGCCAACGUUCUCAACUAUGAUACGCAAAACGCGUGCUCCGUUGAAUGGAUUUUAUCAUG [A16U C38A C75A C114U G143U] | ≤ -4.2 |
| GGAUCUUCUCGAUCUUACAAAAAAGACAAAUCUGCCACAAAGCUUGAGAGCAUCUUCGGAUGCAGAGGCGGCAGCCUUCGGUGGUGUGAUAGCGCCAACGUUCUCAACUAUGACGCGCAAAACGCGUGCUCCGUUGAAUGGAGUUUAUCAUG [A16U C85U C87U A115G] | -3.52 |
| GGAUCUUCUCGAUCUUACAAAAAAGACAAAUCUGCCACAAAGCUUGAGAGCAUCUUCGGAUGUAGAGGCGGCAGCCUUCGGUGGCGCGAUAGCGCCAACGUUCUCAACUAUGACACGCAAAACGCGUGCUCCGUUGAAUGGAGUUUAUCAUG [A16U C63U] | -1.7 |
| GGAUCUUCUCGAUCUUACAAAAAAGACAAAUCUGCCACAAAGCUUGAGAGCAUCUUCGGAUGCAGAGGCGGCAGCCUUCGGUGGAGCGAUAGCGCCAACGUUCUCAACUAUGACACGCAAAACGCGUGCUCCGUUGAAUGGAGUUUAUCAUG [A16U C85A] | -2.74 |
| GGAUCUUCUCGAUCUUACAAAAAAGACAAAUCUGCCACAAAGCUUGAGAGCAUCUUCGGAUGCAGAGGCGGCAGCCUUCGGUGGGGCGAUAGCGCCAACGUUCUCAACUAUGACACGCAAAACGCGUGCUCCGUUGAAUGGAGUUUAUCAUG [A16U C85G] | -3.36 |
| GGAUCUUCUCGAUCUUACAAAAAAGACAAAUCUGCCAUAAAGCUUGAGAGCAUCUUCGGAUGCAGAGGCGGCAGCCUUCGGUGGCGCGAUUGCGCCAACGUUAUCAACUAUGACACGCAAAACGCGUGCUCCGUUGAAUGGAGUUUAUCAUG [A16U C38U A91U C103A] | ≤ -4.2 |
| GGAUCUUCUCGAUCUUACAAAAAAGACAAAUCUGCCACAAAGGUUGAGAGCAUCUUCGGAUGCAGAGGCGGCAGCCUUCGGUGCCGCGAUAGCGCCAACGUUCUCAACUAUGACACGCAAAACGCGUGCUCCGUUGAAUGGAGUUUAUCAUG [A16U C43G G84C] | ≤ -4.2 |
